Like-named read-outs stand apart in the source and are kept apart here.

This note sets out measurements from patent publication US9951128B2, “Caninized anti-NGF antibodies and methods thereof” (ZOETIS SERVICES LLC, priority 2012, dated 2018).

One assay has as its target canine NGF. Nature of the assay: SPR (Biacore T100) binding of anti-NGF mAbs to canine NGF. The source says: As used herein, the term “affinity” refers to the strength of the binding of a single antigen-combining site with an antigenic determinant. Affinity depends on the closeness of stereochemical fit between antibody or antigen binding protein combining sites and antigen determinants, on the size of the area of contact between them, on the distribution of charged and hydrophobic groups, etc. Antibody affinity can be measured by equilibrium analysis or by the Surface Plasmon Resonance—“SPR” method (for example BIACORE™. The SPR method relies on the phenomenon of surface plasmon resonance (SPR), which occurs when surface plasmon waves are excited at a metal/liquid interface. Light is directed at, and reflected from, the side of the surface not in contact with sample, and SPR causes a reduction in the reflected light intensity at a specific combination of angle and wavelength. Bimolecular binding events cause changes in the refractive index at the surface layer, which are detected as changes in the SPR signal.
The generation of anti-drug antibodies (ADAs) can be associated with loss of efficacy for any biotherapeutic protein including monoclonal antibodies. Comprehensive evaluation of the literature has shown that speciation of monoclonal antibodies can reduce the propensity for mAbs to be immunogenic although examples of immunogenic fully human mAbs and non-immunogenic chimeric mAbs can be found. To help mitigate risks associated with ADA formation for the mouse anti-NGF, RN911, monoclonal antibody provided herein, a caninization strategy was employed. This caninization strategy is based on identifying the most appropriate canine germline antibody sequence for CDR grafting (FIG. 3). Following extensive analysis of all available canine germline sequences for both the heavy and light chains, germline candidates were selected on their homology to RN911, and the CDRs from RN911 were used to replace native canine CDRs. The objective was to retain high affinity and cell-based activity using fully canine frameworks to minimize the potential of immunogenicity in vivo. Caninized mAbs were optimized for mammalian expression, expressed and characterized for their ability to bind NGF via SPR. […] Only mAbs that retained both reliable expression levels and the ability to bind NGF following caninization were advanced for further characterization.
(§1) Affinities of each caninized anti-NGF antibody to canine NGF were measured using SPR (Surface Plasmon Resonance). In addition, a functional in vitro assay was developed to measure inhibition constants for the mAbs ability to inhibit binding of NGF to TrkA. […] Some affinity was lost, however, upon caninization to mAb CAN-N2G9-VH, CAN-E3M. Due to this loss of affinity, the caninized mAb was affinity matured (see Example 5 for details) to regain potency. Included in FIGS. 12 and 13 are the results of the affinity matured products, SSM57 (SEQ ID NO. 27 “CAN-SSM57-VH”, SEQ ID NO. 26 “CAN-SSME3M-VL”), SSM58 (SEQ ID NO. 28 CAN-SSM58-VH, SEQ ID NO. 26 “CAN-SSME3M-VL”), and SSM66 (SEQ ID NO.29 CAN-SSM66, SEQ ID NO. 26 CAN-SSME3M-VL) on each SPR assay.
SPR on the supernatants were performed as an initial screen, good binders were purified, and pure mAb was again run via SPR to measure binding to canine NGF (TABLE 5). Constructs LTM109 and LTM135 were chosen to progress based on binding affinities.
Various KD's correspond to different sensors, surface density varies slightly.
Mutated antibodies were expressed in HEK293 cells and evaluated for binding affinities to canine NGF (results below; expression results in Tables 7-9).
(In SPR one partner is held on a chip, and binding of the other changes the refractive index at the surface.)

Assay [1] has as its system NGF binding to receptor trkA. Nature of the assay: Functional in vitro assay: inhibition of NGF binding to TrkA (pre-incubated mAb+NGF). The format is biochemical. The procedure:
FIGS. 12A and B is a graphical representation of affinity data of caninized mAb (left). (Right) trkA inhibition data with pre-incubated mAb+NGF. (Bottom)
as §1

Assay [2] concerns beagle (LPS-induced) synovitis pain model. Briefly: Dog LPS-induced synovitis pain model, lameness by visual analogue scale. The class given is in vivo. The conditions noted are these: synovitis induced 7 and 28 days post-dose. How it is done: PK/PD data were generated with RN911 in the target species in a synovitis efficacy study. In the synovitis pain model, transient inflammation of the synovial membrane in a single stifle is induced via intra-articular injection of bacterial lipopolysaccharide (LPS). Quantifiable lameness occurs within 2h of synovitis induction, peaks at 3-4h, is waning by 6h and is fully resolved after 24h. From an IACUC perspective, it is acceptable to induce synovitis on two separate occasions (i.e., once in each stifle), provided the lameness associated with the first synovitis induction has fully resolved. Therefore we designed a study in which synovitis was induced in the same beagle 3 days and 7 days after IV treatment (RN911 or PBS vehicle). After each synovitis induction, lameness was quantified using a visual analogue scale (VAS).
At this time, the free RN911 serum concentrations averaged 24400±3900 ng/mL (170±27 nM; FIG. 2).
Caninized mAb (CAN-SSME3M-VL, CAN-SSM57-HC) was tested in dog synovitis model at 5 mg/kg IV and 5 mg/kg SC. Results of study are shown in FIG. 14, inducing synovitis at 7 days and 28 days post-dose.

Assay [3] relates to rat MIA model of osteoarthritis. Nature of the assay: Rat MIA osteoarthritis model, weight bearing test. The format is in vivo, Rat Ola Wistar. The conditions noted are these: dosed on study day 7 and study day 14. The procedure: Osteoarthritis (OA) is a degenerative joint disease characterized by joint pain and a progressive loss of articular cartilage. Intra-articular injection of MIA induces loss of articular cartilage with progression of subchondral bone lesions that mimic those of OA. This model offers a rapid and minimally invasive method to reproduce OA-like lesions in a rodent species.
Pain was assessed using weight bearing test for sustained pain and joint compression (Randall Selitto) test for mechanical hyperalgesia. See FIG. 17 for a schematic of the rat MIA procedure.
This training regime was required as it was anticipated that the level of variability within the experiment is relatively high. […]
Weight bearing deficits were measured in all rats on study day −1, this measurement served as a baseline. Weight bearing was then recorded on study days 9, 16, 21 and 28. […]
The weight bearing of each leg was measured separately by weight bearing apparatus (IITC, Series 8, Model 600®). This test quantifies the spontaneous postural changes reflecting spontaneous pain by independently measuring, on two separate sensors, the weight that the animal applies on each hind paw.
Results were calculated and represented as the percentage of weight that the animal leaned on the injected right leg or intact left leg from the total amount of leaned weight on the two hind legs. […]

The mark [4] stands for this setting: canine NGF, 1:1 Binding fit, Table 9.

Sequence of canine NGF (as listed by the source): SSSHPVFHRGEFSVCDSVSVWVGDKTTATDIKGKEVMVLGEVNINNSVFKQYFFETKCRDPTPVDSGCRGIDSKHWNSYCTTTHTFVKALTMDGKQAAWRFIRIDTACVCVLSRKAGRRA
Sequence of NGF binding to receptor trkA (as listed by the source): as above

B1: CanE3M 65112: caninized RN911 mAb: CAN-N2G9-VH (SEQ ID NO. 17), CAN-E3M-VL (SEQ ID NO. 16), CAN-65E-HC, CAN-KAPPA-LC (antibody, V domains shown)
VH: EVQLVESGGDLARPGGSLKLSCVVSGFSLIGYDINWVRQAPGKGLQWVTMIWGDGTTDYNSALKSRFTVSRDNAMNTVYLQMNSLRVEDTAVYYCARGGYYYGTSYYFDYWGQGTLVTVSS
VL: DIVMTQTPLSLSVSPGETASISCRASQDISNHLNWFRQKPGQSPQRLIYYISRFHSGVPDRFSGSGSGTDFTLRISRVEADDTGVYYCQQSKTLPYTFGAGTKLEIK
modifications: canine constant regions without entries; canine
On to B1, for which the Kd turned out to be 3.35e-09 M at canine NGF (Dog NGF, Biacore T100, purified mAb, run 11/8 (different sensors), read-out: KD (M) 11/8); 1.46e-09 M at canine NGF (Dog NGF, Biacore T100, purified mAb, run 11/22 (different sensors), read-out: KD (M) 11/22); 2.35e-09 M at canine NGF (Dog NGF, Biacore T100, purified mAb, run 11/24 (different sensors), read-out: KD (M) 11/24); 3.51e-09 M at canine NGF (Dog NGF, Biacore T100, purified mAb, run 11/29 (different sensors), read-out: KD (M) 11/29); 4.7e-09 M on canine NGF (canine NGF, 1:1 Binding fit, Table 9, read-out: KD). Moreover, the “Binding of mAbs to NGF (FIGS. 12 and 13)” value with canine NGF (SPR) is given as “high affinity binding”. The ka in the assay on canine NGF (setting [4]) is 17200 M⁻¹ s⁻¹. On canine NGF (setting [4]), the kd turned out to be 8.11e-05 s⁻¹. Also, the “Binding to canine NGF after caninization / framework substitution” value with canine NGF (expressed in HEK 293) is reported as “retained NGF binding”. Besides, in assay [1], the “Inhibition by mAbs of NGF binding to receptor trkA” value is “potent inhibition”.

B2: SSM58: affinity matured caninized mAb: CAN-SSM58-VH (SEQ ID NO. 28), CAN-SSME3M-VL (SEQ ID NO. 26) (antibody, V domains shown)
VH: EVQLVESGGDLARPGGSLKLSCVVSGFSLIEYDINWVRQAPGKGLQWVTMIWGDGTTDYNSALKSRFTVSRDNAMNTVYLQMNSLRVEDTAVYYCARGGYWYATSYYFDYWGQGTLVTVSS
VL: DIVMTQTPLSLSVSPGETASISCRASQSISNNLNWFRQKPGQSPQRLIYYISSFHSGVPDRFSGSGSGTDFTLRISRVEADDTGVYYCQQSHTLPYTFGAGTKLEIK
modifications: canine
On to B2, for which the “Binding affinities to canine NGF among SSM mutated antibodies” value (“Binding affinities” for short) in the assay on canine NGF was “highest affinities”.

B3: SSM57: affinity matured caninized mAb: CAN-SSM57-VH (SEQ ID NO. 27), CAN-SSME3M-VL (SEQ ID NO. 26) (antibody, V domains shown)
VH: EVQLVESGGDLARPGGSLKLSCVVSGFSLIQYDINWVRQAPGKGLQWVTMIWGDGTTDYNSALKSRFTVSRDNAMNTVYLQMNSLRVEDTAVYYCARGGYWYATSYYFDYWGQGTLVTVSS
VL: DIVMTQTPLSLSVSPGETASISCRASQSISNNLNWFRQKPGQSPQRLIYYISSFHSGVPDRFSGSGSGTDFTLRISRVEADDTGVYYCQQSHTLPYTFGAGTKLEIK
modifications: canine
With B3, the “Efficacy in dog synovitis model” value in assay [2] (5 mg/kg IV) and in assay [2] (5 mg/kg SC) was “showed efficacy” in each case. Further, the “Binding affinities” value in the assay with canine NGF is on record as “highest affinities”. Besides, the “Analgesic effect in the rat MIA model of osteoarthritis” value in assay [3] is “demonstrated”.

B4: SSM66: affinity matured caninized mAb: CAN-SSM66-VH (SEQ ID NO. 29), CAN-SSME3M-VL (SEQ ID NO. 26) (antibody, V domains shown)
VH: EVQLVESGGDLARPGGSLKLSCVVSGFSLIEYDINWVRQAPGKGLQWVTMIWGTGTTDYNSALKSRFTVSRDNAMNTVYLQMNSLRVEDTAVYYCARGGYWYATSYYFDYWGQGTLVTVSS
VL: DIVMTQTPLSLSVSPGETASISCRASQSISNNLNWFRQKPGQSPQRLIYYISSFHSGVPDRFSGSGSGTDFTLRISRVEADDTGVYYCQQSHTLPYTFGAGTKLEIK
modifications: canine
For B4, the “Binding affinities” value in the assay with canine NGF was “highest affinities”.
